These results are taken from PMC8248988, “A signal capture and proofreading mechanism for the KDEL-receptor explains selectivity and dynamic range in ER retrieval” (eLife, 2021).

What is called IC50 is the point on the concentration scale where inhibition reaches its midpoint. One may read the KD as the constant that tells how readily two partners part at equilibrium. Read a low KD as a tighter complex. For orientation: Kd means a measure of binding affinity in units of concentration.

Residue numbers refer to the chain shown, from its start. Ends that are not written are not given here. Some results are limits rather than exact numbers.

For one assay, the target named is T1, chicken KDELR2 (Gallus gallus, UniProt Q5ZKX9).
T1 construct: GFP (of the pDDGFP vector); made in house; host or cells: Saccharomyces cerevisiae Bj5460
T1 sequence (Q5ZKX9 1-212): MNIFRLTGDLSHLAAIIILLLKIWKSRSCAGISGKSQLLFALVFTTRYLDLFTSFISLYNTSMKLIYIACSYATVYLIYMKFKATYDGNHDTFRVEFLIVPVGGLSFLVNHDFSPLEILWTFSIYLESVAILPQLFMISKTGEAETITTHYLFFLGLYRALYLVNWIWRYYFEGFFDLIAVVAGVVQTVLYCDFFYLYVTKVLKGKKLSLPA
Description: Competition binding assay, [3H]-TAEHDEL against unlabelled peptide. Conditions: for IC50: competition with [3H]-TAEHDEL, free (COOH) or amidated (CONH) C-terminus, pH 5.4, read-out: Competitor peptide IC50. An excerpt:
(§1) Figure 1. ER retrieval signal abundance and affinity are not correlated. (a) Sequence logos for ER resident proteins with C-terminal KDEL retrieval signals and variants thereof calculated using frequency or protein abundance ([Itzhak et al., 2017]; [Itzhak et al., 2016]). (b) Combined cellular concentrations of ER resident proteins with canonical KDEL, RDEL, and HDEL retrieval sequences in HeLa cells and mouse brain. (c) Competition binding assays for [^3H]-TAEHDEL and unlabelled TAEKDEL, TAERDEL, and TAEHDEL to the KDEL receptor. IC50 values for the competing peptides were used to calculate the apparent KDwith the Cheng-Prusoff equation ([Cheng and Prusoff, 1973]). (d) Endogenous KDEL receptor redistribution was measured in COS-7 cells in the absence (-ligand) or presence of K/R/H/A/DDEL (mScarlet-xDEL^sec). TGN46 was used as a Golgi marker. Scale bar is 10 µm. (e) The mean difference for K/R/H/A/DDEL comparisons against the shared no ligand control are shown as Cummings estimation plots. The individual data points for the fraction of KDEL receptor fluorescence in the Golgi are plotted on the upper axes with sample sizes and p values. Figure 1—source data 1. Source data for the ligand-induced KDELR receptor retrieval assays in Figure 1e. Figure 1—figure supplement 1. Abundance of ER resident proteins and chaperones in human cells and mouse brain. (a) The mean concentration of ER resident chaperones with the indicated ER retrieval sequence variant is plotted in the bar graph ([Itzhak et al., 2017]; [Itzhak et al., 2016]). […] Endogenous ER chaperone secretion was measured by western blotting after challenge with different retrieval signals, and plotted as a bar graph showing mean ± SEM (n = 3). […] (a) Distribution of human KDELR1 and (b) KDELR2 was measured in COS-7 cells in the absence (-ligand) or presence of K/R/H/A/DDEL retrieval signals (K/R/H/A/DDEL^sec). […] The fraction of KDEL receptor localised to the Golgi was measured before (no ligand) and after challenge with different retrieval signals as indicated. […]

The target in another assay is T2, human KDELR1 (Homo sapiens, UniProt P24390).
T2 construct: expressed in transfected cells; host or cells: COS-7
T2 sequence (P24390 whole entry): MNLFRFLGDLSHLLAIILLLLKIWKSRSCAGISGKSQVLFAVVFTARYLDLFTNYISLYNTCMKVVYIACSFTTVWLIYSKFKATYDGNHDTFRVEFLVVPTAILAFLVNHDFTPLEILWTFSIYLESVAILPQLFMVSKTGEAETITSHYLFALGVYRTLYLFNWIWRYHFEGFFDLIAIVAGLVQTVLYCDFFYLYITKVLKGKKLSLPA
Description: ER retrieval assay, WT KDELR1-GFP. The class given is cell-based. Conditions: COS-7 cells, WT human KDEL receptor-GFP with mScarlet ligand. An excerpt: To create KDELR1-GFP and KDELR2-GFP, the reading frames for Homo sapiens KDELR1 (Uniprot: P24390) and KDELR2 (Uniprot: P33947) were cloned into the pEF5/FRT low level mammalian expression vector with a C-terminal 20 amino acid linker made up of 5 copies of Gly-Ser-Ser-Ser followed by GFP. Specific point mutations were introduced using the Quickchange protocol (Stratagene) and are described in the key resources table and figures. To create the mScarlet-KDEL^sec ligand construct, mScarlet with an N-terminal hGH signal peptide and the 16 C-terminal residues of human BiP at its C-terminus, containing the KDEL signal, was cloned into the pcDNA3.1 vector. […] The Golgi marker protein TGN46 was detected by antibody (sheep anti-TGN46 AHP500G; AbD Serotec) and an Alexa 647 conjugated secondary anti-sheep secondary (A-21448, Invitrogen). In Figure 1d and e, endogenous KDELR was detected by antibody (mouse anti-KDELR ADI-VAA-PT048; Enzo Life Sciences) and Alexa 488 conjugated anti-mouse secondary antibody (A-21202, Invitrogen). For retrieval assays in other figures, KDELR-GFP fusion proteins were directly detected by fluorescence. The mScarlet-xDEL fusion proteins were directly detected by fluorescence. […] The fraction of KDEL receptor in the Golgi apparatus was calculated by dividing the Golgi signal by the total cell signal. […]

Assay [1] deals with endogenous KDEL receptor in COS-7 cells. Description: ER retrieval assay, endogenous KDEL receptor redistribution. In kind it is cell-based, African green monkey. Conditions: COS-7 cells.
Text: as §1, with “1.” for “1. Abundance of ER resident proteins and chaperones in human cells and mouse brain. (a) The mean concentration of ER resident chaperones with the indicated ER retrieval sequence variant is plotted in the bar graph ([Itzhak et al., 2017]; [Itzhak et al., 2016]).”
To create KDELR1-GFP and KDELR2-GFP, the reading frames for Homo sapiens KDELR1 (Uniprot: P24390) and KDELR2 (Uniprot: P33947) were cloned into the pEF5/FRT low level mammalian expression vector with a C-terminal 20 amino acid linker made up of 5 copies of Gly-Ser-Ser-Ser followed by GFP. […]

Assay [2] has as its target TAEHDEL retrieval-signal peptide (unlabelled) K to H at position -4 relative to TAEKDEL (K651H in human BiP numbering) (UniProt P11021). Description: radioligand filter-binding assay, competition of unlabelled peptide against [3H]-TAEHDEL. Conditions: pH 5.4; 20°C; 40 mM Sodium Chloride; 20 mM MES pH 5.4 (default assay buffer 'unless stated otherwise'; pH not restated for this experiment).

Assay [3] has as its target TAEKDEL retrieval-signal peptide (unlabelled) (UniProt P11021). The assay is described as above. Conditions: pH 5.4; 20°C; 40 mM Sodium Chloride; 20 mM MES pH 5.4 (default assay buffer 'unless stated otherwise'; pH not restated for this experiment).
The target of assay [4] is TAERDEL retrieval-signal peptide (unlabelled) K to R at position -4 relative to TAEKDEL (K651R in human BiP numbering) (UniProt P11021). The assay is described as above. Conditions: pH 5.4; 20°C; 40 mM Sodium Chloride; 20 mM MES pH 5.4 (default assay buffer 'unless stated otherwise'; pH not restated for this experiment).
Sequence of TAERDEL retrieval-signal peptide (unlabelled) K to R at position -4 relative to TAEKDEL (K651R in human BiP numbering) (P11021 whole entry K651R, looked up, tested part not stated): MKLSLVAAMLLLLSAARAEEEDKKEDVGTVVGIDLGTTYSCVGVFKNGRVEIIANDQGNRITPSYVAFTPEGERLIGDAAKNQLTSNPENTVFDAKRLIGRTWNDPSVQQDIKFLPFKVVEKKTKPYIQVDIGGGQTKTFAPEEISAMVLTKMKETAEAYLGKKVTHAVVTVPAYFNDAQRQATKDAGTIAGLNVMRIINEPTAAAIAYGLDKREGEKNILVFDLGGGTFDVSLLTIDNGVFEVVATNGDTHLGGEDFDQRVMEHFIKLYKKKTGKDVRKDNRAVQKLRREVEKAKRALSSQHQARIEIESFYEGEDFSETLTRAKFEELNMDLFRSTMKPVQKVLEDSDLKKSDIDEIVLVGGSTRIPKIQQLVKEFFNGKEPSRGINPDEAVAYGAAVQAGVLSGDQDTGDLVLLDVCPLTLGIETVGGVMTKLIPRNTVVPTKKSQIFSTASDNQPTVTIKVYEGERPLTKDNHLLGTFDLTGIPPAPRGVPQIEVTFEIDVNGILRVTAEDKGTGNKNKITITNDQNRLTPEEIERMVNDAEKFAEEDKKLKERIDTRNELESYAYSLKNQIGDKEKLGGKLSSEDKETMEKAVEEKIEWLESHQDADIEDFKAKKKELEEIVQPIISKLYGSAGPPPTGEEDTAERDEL
Assay [5] concerns the target [3H]-TAEHDEL retrieval-signal peptide K to H at position -4 relative to TAEKDEL (K651H in human BiP numbering) (UniProt P11021). Description: radioligand filter-binding assay, direct titration (scintillation counting). Conditions: 20°C, 40 mM Sodium Chloride, 20 mM MES pH 5.4 (default), the buffers used for the other pH values of Figure 3f (up to pH 7.0) are not stated.

In assay [6] the target is [3H]-TAEKDEL retrieval-signal peptide (UniProt P11021). Described as above. Conditions: pH 5.4; 20°C; 40 mM Sodium Chloride; 20 mM MES pH 5.4 (default); the buffers used for the other pH values of Figure 3f (up to pH 7.0) are not stated.
Sequence of [3H]-TAEKDEL retrieval-signal peptide (P11021 whole entry, looked up, tested part not stated): as the sequence (P11021 whole entry K651R, looked up, tested part not stated) above, with R651K counted along it
For assay [7] the target is unchanged. Description: in vitro binding assay of Bräuer et al. 2019 (not described here; presumably the same [3H]-TAEKDEL filter-binding assay). Conditions: pH 6.4; cited from earlier work.
For assay [8], the target named is T3, TAEHDEL retrieval signal peptide.
T3 chain: TAEHDEL
Description: [3H]-peptide filter binding assay, pH 5.4.

Assay [9] addresses T4, TAEKDEL retrieval signal peptide (BiP) (Homo sapiens).
T4 chain: TAEKDEL
Description: [3H]-peptide filter binding assay, pH 5.4.

Sequence of [3H]-TAEHDEL retrieval-signal peptide K to H at position -4 relative to TAEKDEL (K651H in human BiP numbering) (P11021 whole entry K651H, looked up, tested part not stated): as the sequence (P11021 whole entry K651R, looked up, tested part not stated) above, with R651H counted along it
Sequence of TAEHDEL retrieval-signal peptide (unlabelled) K to H at position -4 relative to TAEKDEL (K651H in human BiP numbering) (P11021 whole entry K651H, looked up, tested part not stated): as the sequence (P11021 whole entry K651R, looked up, tested part not stated) above, with R651H counted along it
Sequence of TAEKDEL retrieval-signal peptide (unlabelled) (P11021 whole entry, looked up, tested part not stated): as the sequence (P11021 whole entry K651R, looked up, tested part not stated) above, with R651K counted along it

In the case of TAEKDEL-OH [KDEL, TAEKDEL], on chicken KDELR2, the 50% inhibitory concentration (IC50) worked out at 152 ± 21.7 µM.

For “pcDNA3.1 hGHss-mScarlet-S. cerevisiae BiP667-682 [FEHDEL]”, the “ligand-induced receptor retrieval to the ER (in words)” value on human KDELR1 was “functional”.

Consider TAEKDEL, for which the “localisation of the mScarlet ligand (in words)” value in assay [1] was “retrieved to the ER”.

As for “KDEL receptor 2 (KDELR2, ER lumen protein-retaining receptor 2), wild type”, the entries for the “KD (apparent, from IC50)” value in [2], in assay [3] and in assay [4] were “KD 0.24 µM”, “KD 1.94 µM” and “KD 2.71 µM”, respectively. The KD worked out at 0.26 ± 0.04 µM in assay [5] (pH 5.4) and 1.9 ± 0.46 µM in assay [6]. Further, the entries for the “fraction of maximal binding” value in [5] (pH 6.4) and in assay [7] were ~ 60% maximal binding and under 20%, respectively.

As to TAEHDEL-NH2 [HDEL^CONH, TAEHDEL-CONH], on chicken KDELR2, the IC50 was 1750 ± 170 µM.

On to “TAEKDEL-CONH [KDEL^CONH, C-amidated peptide variant]”, for which the “binding of C-terminally amidated peptide to wild-type receptor (in words)” value on chicken KDELR2 (amidated C-terminus) is “completely abolished binding”.

B1: KDEL receptor 2 (protein)
chain: T1 sequence (Q5ZKX9 1-212) with E117A
As to B1, the dissociation constant Kd in assay [8] was 0.52 µM; in assay [9], about 9.3 µM.

B2: KDEL receptor 2 (protein)
chain: T1 sequence (Q5ZKX9 1-212) with W120F
For the molecule B2, in assay [8], the Kd came out at 5.5 µM.

B3: KDEL receptor 2 (protein)
chain: T1 sequence (Q5ZKX9 1-212) with E117D
On to B3, for which the dissociation constant (Kd) in [8] amounted to 0.52 µM; in assay [9] it was 2.1 µM.
